Measurements as given in paper PMC12948236.

Assays:
thrombin [1] = target: T1, thrombin (UniProt P00734;P00734 328-363;364-622); test: AFM imaging; 5 nM origami, 100 nM thrombin; empty:filled cavities 25:0; Na+ samples: 140 mM NaCl, 40 mM Tris-acetic acid, 1 mM EDTA, 12.5 mM MgCl2, 5 mM KCl; specificity tests 5 nM origami, 100 nM protein; imaging buffer, pH and tem
thrombin [2] = target: T1, thrombin; test: AFM imaging / C-AFM; monovalent anchoring; Na+ samples: 140 mM NaCl, 40 mM Tris-acetic acid, 1 mM EDTA, 12.5 mM MgCl2, 5 mM KCl; specificity tests 5 nM origami, 100 nM protein; imaging buffer, pH and tem

B1: DNA origami with four SA aptamers (20-SAA1) (mixed)
DNA: TGAATCTAACGGTGCGTATCTTTTTCTGTGAGACGACGCACCGTCGCAGGTTTTGTCTCACAGTTTTGTACCTCGGAGACCAAGTAG
modifications: 3'-C3-S-S-C3 on edge staples (gold samples); none on aptamer strand
**Q.** Does B1 bind (thrombin [1])?
**A.** no binding

B2: DNA origami with TBA15 only (20-TBA15) (mixed)
DNA: CATCTGACCTCTGTGCTGCTTTTTGGTTGGTGTGGTTGGTTTTTTCACGGTAGCACGCATAGG
modifications: 3'-C3-S-S-C3 on edge staples; none on aptamer strand
**Q.** Does B2 bind (thrombin [2])?
**A.** binds
